According to the nanobody polyreactivity screen of Harvey et al. (2022):

Assay: yeast display, Sf9 membrane polyspecificity reagent, FACS + sequencing; frameworks hold sequencing errors
Outline: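 Nanobodies came from a synthetic yeast display library in Saccharomyces cerevisiae BJ5465, induced with galactose for 36–48 hours and stained for 1 hour at 4 °C with 10% biotinylated, detergent-solubilized Sf9 membrane reagent. Cells were enriched on streptavidin microbeads and then FACS-sorted, with low and high (top ~1%) gates set on anti-HA fluorescence for expression and streptavidin fluorescence for reagent binding. Each polyreactivity label reflects the gate a clone came from. Genes were amplified by colony PCR, sequenced by MiSeq 2 × 250 and filtered by CDR length.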

Sequence	polyreactivity (PSR sort gate)
QVQLVESGGGLVQAGGSLRLSCAASGSIFWGNAMGWYRQAPGKERELVAAIDWSGGSTYYADSVKGRFTISRDNAKNTVYLQMNSLKPEDTAVYYCAASGRYDYDYWGQGTQVTVSS	low polyreactivity
QVQLVESGGCLVQAGGSLRLSCAASGRTFYTYAMGWYRQAPGQERELVAAITYRGGNTYYADSVKGRFTISRDNAKNTVYLQMNSLKREDTAVYYCAATYKRRSGQSFDYWGQGTQVTVSS	high polyreactivity
QVQLVESGGGLVQAGGSLRLSCAASGFIFAPYAMGWYRQAPGKERELVAAISWSGGSTYYADSVKGRFTISRDNAKNTVYLQMNSLKPEDTAVYYCAAAGYITRYDRYDYWGQGTQVTVSS	high polyreactivity
QVQLVESGGGLVQAGGSLRLSCAASGSIFPRYAMGWYRQAPGKERELVAAINSGGSTNYADSVKGRFTISRDNAKNTVYLQMHSLKPEDTAVYYCNAVFISYSYRRGPTLYVYWGQGTQVTVSS	high polyreactivity
QVQLVESGGGLVQAGGSLRLSCAASGSILLRNTMGWYRQAPGKERELVAAISWRGGSTYYADSVKGRFTISRDNAKNTVYLQMNSLKPEDTAVYYCAARWVASHKGGYWGQGTQVTVSS	high polyreactivity
QVQLVESGGGLVQAGGSLRLSCAATGFIFRYYAMGWYSQAPGKERELVATISSGGGTHYADSVKGRYSISRDNAKNTVYLKMNSLKPEDTAVYYCNARGYRRLRTRVDYWGQGTQVTVSS	high polyreactivity
QVQLVESGGGLVQAGGSLRLSCAASGSIFGSYVMGWYRQAPGKERELVAAISKSGGRTYYADSVKGRFTISRDNAKNTVYLQMKSLKPEDTAVYYCAVLPRVKDGTGGDYWGHGTQVTVSS	high polyreactivity
QVQLVESGGGLVQAGGSLRLSCAASGITFYPYTMGWYRQAPGKERELVASISTSGTNYADSVKGRFTISRDNAKNTVYLQMNSLKPEDTAVYYCAADIWSYYRSTHVDSWGQGTQVTVSS	low polyreactivity
QVQLVESGGGLVQAGGGRRGSGAAAGSIFAWYAMGWYRQAPGTERELVATITWSGGSTYYADSVKGRFTISRDIAKNTVYLQMNSLKREDTAVYYCAAEVVGIWYDLWYQGDYWGQGTQVTVSS	low polyreactivity
QVQLVESGGGLVQAGGNLRLSCAASGSIFYWNAMGWYRQAPGKERELVAAINYSGDSTYYADSVKVRFTISRDNAKNTVYLQMNSLKPEDTAVYYCNFDYWGQGSQVTVSS	low polyreactivity
QVQRVESGGGLVQAGGSLRLSCAASGSIFPRYAMGWYRQAPGKEREMVATISSGGSTYYADSVKGRFTISRDNAKNTVYLQMNSLKPEHTAVYYCAARKRPYTVINGMDYWGQGTQVTVSS	low polyreactivity
QVQLVESGGGLVQAGGSLRLSCAASGRIFGDYGMGWYRQAPGKERELVAAITDRGGPTYYADSVKGRFTISRDNAKNTVYLQRNSLKPEDTAVYYCNARQSDIFDYDYWGQGTQVTVSS	low polyreactivity
QVQLVESGGGLVQAGGSLRLSCSASGSIFRYYAMGWYRQPPGKEREFVASITYRGGRTYYADSVKGRFTISRDNAKKTVYLQMNSLKPEDTAVYYCAARTRAGAWTSKYHDYWGEGTQVTVSS	high polyreactivity
QVQLVESGGGLVQAGGSLRLSCAASGYTDYAMGWYRQAPGKERELVATITSGDNTNYADSVKGRFTISRDNAKNTVDLQMNSLKPEDTAVYYCAAEYGMHYGIDYWGQGTQVTVSS	low polyreactivity
QVQLVDSGGGLFQPGGSLRLSCAASGSTFSDNAMGWYRQAPGKERELVASISSDDGSTYADSVKGRFTISRDNAMNTVYLQMNSLKSEDTAVYYCAADGFLAIYAAEYDYWGQGTQVTVSS	low polyreactivity
QVQLVESGGGLVQAGGSLRLSCDASGRTFIVYAMGWYRQEPGKERELVARISSGSRTSYADSVKGRFTISRDNAKNTVYLQMNSLKPEDTAVYYCNAREYLKPGVPYYSQQLDYWGQGTQVTVSS	low polyreactivity
QVQHVESGGGLVQAGGSLRLSCAASGSYLRYYAMGWYRQAPGKERELVAAISRSGTNTYYADSVKGRFTFSPDNAKNSVYLQMNSVKPEVTAVYYCAARGYYRDYDSWGQGTQVTVSS	high polyreactivity
QVQLVESGGGLVQAGGSLRLSCAASGSTFDKNTMGWYRQAPGKERELVAAISRSGGSTYYADSVKGRYTISRDNAKNTVYLQMNSLKPEDTAVYYCAAQSRYWTYDYWGQGTQVTVSS	high polyreactivity
QVQLVESGGGLVQAGGSLRLSCAASGSIFRIYAMGWYRHAPGKERELVAAITGRGGSTYYADSVKGRFTISRDNEKNTVYLQMNSLKPEDTAVYYCAAEERYAYRYDYWGQGTQVTVSS	high polyreactivity
QVQLVESGGGLVQAGGSLRLICAASGNIFDVNAMGLYRQAPGKERELVAGITTNGGRTFYADSVKGRFTFSRDNAKNTVYLQMNSLKPEDTAVYYWNARHGRHRRTPFAKYDFWGQGTQVTVSS	high polyreactivity
QVQLVESGGRLVQAGGSLRLSCAASGIIFFYYTIGWSRQAPGKERELVAAISSGGGTYYADSVKGRFTISRDNAKNTVYLQMNSLKPEDTAVYYCAAVRYSSSSRGGYWGQGTQVTVSS	high polyreactivity
QVQLVESGGGLVQAGGSLRLSCAASGSIFKQNAMGRYRQAPGKESELVSDITSCGGSTYYADSVKGRFTISRDNAKNTVYLQMNSLKPEDTAVYYCNVVETSLELGWQAFDYWGQGTQVTVSS	low polyreactivity

Sequence	polyreactivity (PSR sort gate)
QVQLVESGGGLVQAGGSLRLRCAASGSIFWPYAMGWYRQAPGKERELVAGISSGGSTYYADSVKGRFTISRDNAKNTDYLQMNSLKPEDTAVYYCAARWQWLNGYYYWGQGSQVTVSS	high polyreactivity
QVQLVESGGGLVQAGGSLRLSCAASGFTFIYYAMGWYRQAPGKERELVAAISASGGSTYYADSVKGRFTISRDNAKNTVYLQMNSLKPEDTAVYYCAADALIYYKGSPDYYWGQGTQVTVSS	high polyreactivity
QVQLVETGGGLVQAGGSLRLSCAASGRIFRFYDMGWYRQAPGQERELVATINPTGGSTSYADSVKGRFTISRDNAKNTVYLQMNSLNPEDTAVYYCAADSWYSVRKTWSRSGSFPFDYWGQGTQVTVSS	high polyreactivity
LVQLVESGGGLVQAGGSLRLSCAASGSIFRRYAMGWYRQAPGKERELVAAISRNSGRTYYADSVKGRFTISRDNAKNTVYLQTNSLKPEDTAVYYCAKLTLSSRWYYIYDYWGQGTQVTVSS	high polyreactivity
QVQLVESGGGLVQAGGSLRLSCAASGFIFDIYAMGWYRQAPGKERELVASINWSGGDSTSYADSVKGRFTISRVNAKNTVSLQMNILKPEDTAVYYCIAEYWYYAGGYPDEYDYWGQGPQVTVSS	low polyreactivity
QVQLVESGGGLVQAGGSLRLSCAASGSTLGRYSMGWYRQAPGKERELVAAISWRGGSTYYADSVKGRFTISRDNAKNTVYLQMNSLKPEDTPVYYCAATYRFSEYYYWGQGTQVTVSS	high polyreactivity
QFQLVESGGGLVQAGGSLRLSCAASGLIFAYYAMGWYRQAPGKERELVAAISWTGGSTYYADSVKGRFTISRDNAKNTVYLQMNSLKPEDTAVYYCNTVGKPGFYSWGQGTQVTVSS	high polyreactivity
QVQLVESGGGLVQAGGSLRLSCAASGFTFLKYAMGWYIQAPGKERELVARITSGGRTYYADSVKGRFTISRDNAKNTVYLQMNSLKPEDTAVYYCNAVKSYASLYAGFYYWGQGTQVTVSS	high polyreactivity
QVQLVESGGGLVQAGGILRLSAASGSTLAGNTMGWYRQAPGKERELVAAINDSGGSTYYADSVKGRFTISRDNAKNTVYLQMNSLKPEDTAVYYCNADGSAYIEDGYDYWGQGTQVTVSS	low polyreactivity
QVQLVESGGGLVQAGGSLRLSCAASGRIFFNYAMGWYRQAPGKQRELDAAITTNGGSTYYAVSVKGRFTISRDNAKNTVYLLMNSLKPEDTAVYYCNTRRKNFVKSSQVEYWGQGTQVTVSS	high polyreactivity
QDQLVESGGGLVQAGGSLRLSCAASGSIFRYYAMGWYIQAPGKEREFVASITYRGGRTYYADSVKGRFTISRDNAKNTFFLQMNSLKPEDTAVYYCAARTRAGAWTSKYHDYWGQGTQVNVSS	high polyreactivity
QVQLVESGGGLVLAGGSLRLSCAASGHIFFYYTMGWYRQSPGKERELVAGITIGGSTNYADSVKGLFTISRDNAKNTVYLQMISLKPEDTAVYYCNVVKYVYIYSYWEYYYWGQGTQVTVSS	low polyreactivity
QVQLVESGGGLVQAGGSLRLSCAASGSTFSRNAKGWYRQAPGKERELVAAITRSGGSTYYADSVKGRFTISRDNAKNTVYLQMNSLKPEDTAVYYCAVAVPRGVYLYDYWGQGTQVTVSS	low polyreactivity
QVQLVESGGGLVQAGGSLRLSCAASGSTIVYNAMGWYRQAPGKEREFVAAISWSGGSTYYADSVKGRFTISRDNAKNTVYLQMNSLKPEDTAIYYCAATSRSNGFRYYYWGQGTQVTVSS	high polyreactivity
QVQLVESGGGLVQAGGSLRLSCAASGRTIWYYAMGWYRQAPGKERELVAAITNRGGSTSYADSVKVRFTISRDNVKNTVYLQMNSLKPEDTAVYYCAKENYYGGGFDYWGQGTQVTVSS	high polyreactivity
QVQLVESGGGLVQAGGSLRLSCAASGYMGWYRQAPGKERELVATISGSGGSTYYADSVKGRFTISRDNAKNTVYLQMNSLKPEDTAVYYCTTEIWGVNRSGYDYWGQGTQVTVSS	low polyreactivity
QVQLVESGGGLVQAGGSLRLSCAASGITFERNGMGWYRQAPGKERELVAAIRSGGSTYYADSVKGRFTISRDNAKNTVYLQMNSLKPEDTAVYYCNAPYGRQGYDYWGQGTQVTVSS	low polyreactivity
QVQLVESGGGLVQAGCSLRLSCAASGSIFAVYAMGWYRQATGKERELVAAISWSVGSTYYADSVKGRFTISRDHAKNTVYFQMNSLKPEDTAVYYCAAELAYYLDYVEYFTEIDLEGYWGQGTQVTVSS	low polyreactivity
QVQLVESGGGLVQAGGSLRLSCAASGIIFGSNVMGWYREAPGIERELVAAINYGGGSTYYADSVKGRFTISRDNAKKTVYLQMNSLKPEDTAVYYCAARGSRDYRYDYWGQGTQVTVSS	low polyreactivity
QVQLVESGGGFFQAGGRLRLSCAASGRIFGINAMGWYRQAPGKERELVAAISRSGGRTYYADSVKGRFTISRDNGKNTVYFQMNSLKPEDTAVYDCAQGDAHSYSRYDYWGPGTQVTVSS	high polyreactivity
QVQLVESGGGLVKAGGSLRLSCAASGRTFALYAMGWYRLAPGKERELVAGITFRGGSTYYADSVKGRFRISRDNAKNTVYLQMNSLKPEDTAVYYCAAERWRWYYSWTMDYWGQGTQVTVSS	high polyreactivity
